What was measured:
[1] = system: FGFR4-dependent phosphorylation of FRS2; experiment: Western blot of FGF19-induced FRS2/FGFR4 phosphorylation in HCC cells; format: cell-based, human; conditions: Huh7; antibodies 100 or 200 ug/mL, BLU9931 0.1 uM or 1 uM; FIG. 21
Method: FIG. 21. Inhibition of FGF19-dependent FGFR4 and FRS2 phosphorylation in Huh7 cells treated with the anti-FGFR4 chimeric antibodies analyzed by Western Blot. Cells were treated with 100 or 200 ug/mL of each antibody, with 0.1 uM or 1 uM BLU9931, or with PBS prior of the addition of FGF19/heparin under the experimental conditions described in the Example 8.
FIG. 31. […] (A) Graph of the absorbance values at 450 nm obtained from a FGFR4-Fc-dependent solid phase binding assay, as a function of the concentration of ab41948. Serial 1:3 dilutions (10 experimental points from 0.00005 ug/mL to 1 ug/mL) were tested in triplicate on the extracellular regions of FGFR4 fused with human Fc. The continuous line is the experimental one while the dashed line is that obtained by fitting experimental data to the “one site binding” equation. […] Inhibition curves were derived by 4P logistic fitting of the experimental data with the KaleidaGraph software, based on the residual absorbance at 450 nm (% of PBS control) at increasing antibody concentrations (1:3 serial dilutions from 0.001 to 10 ug/mL). […]
BLU9931 was included as positive control Ih before cell lysis at concentrations of […]. Total protein lysates in SDS were prepared and analyzed by Western Blot using an anti-phospho-FRS2 antibody (Tyrl96, Cell Signalling), an anti-FRS2 antibody (LSBio) and an anti-GAPDH antibody (Sigma-Aldrich). […]

[2] = system: FGFR4 signalling pathway (CYP7A1, CTGF mRNA)

| Compound | inhibition of FGF19-induced FGFR4 and FRS2 phosphorylation [1] | increase of CTGF expression [2] | reduction of CYP7A1 expression [2] |
| --- | --- | --- | --- |
| C=CC(=O)Nc1cccc(C)c1Nc1ncc2cc(-c3c(Cl)c(OC)cc(OC)c3Cl)ccc2n1 [BLU9931, reference compound] | could inhibit FGF19-induced FGFR4 and FRS2 phosphorylation |  |  |
| FGF19: recombinant FGF19 (Peprotech), FGFR4 ligand |  | about 2.5 fold | about 5 fold |
